The values below come from patent US20250051476A1 (ABDERA THERAPEUTICS, published 2025).

Substitutions are numbered along the chain they refer to. Numbers in names are those of the source.

The target of experiment [1] is T1, DLL3 on cells (SHP-77, NCI-H82, HEK-DLL3, membrane proteome array cells) (human, UniProt Q9NYJ7 27-618).
T1 construct: whole, on cells; also called hDLL3
T1 sequence (looked up): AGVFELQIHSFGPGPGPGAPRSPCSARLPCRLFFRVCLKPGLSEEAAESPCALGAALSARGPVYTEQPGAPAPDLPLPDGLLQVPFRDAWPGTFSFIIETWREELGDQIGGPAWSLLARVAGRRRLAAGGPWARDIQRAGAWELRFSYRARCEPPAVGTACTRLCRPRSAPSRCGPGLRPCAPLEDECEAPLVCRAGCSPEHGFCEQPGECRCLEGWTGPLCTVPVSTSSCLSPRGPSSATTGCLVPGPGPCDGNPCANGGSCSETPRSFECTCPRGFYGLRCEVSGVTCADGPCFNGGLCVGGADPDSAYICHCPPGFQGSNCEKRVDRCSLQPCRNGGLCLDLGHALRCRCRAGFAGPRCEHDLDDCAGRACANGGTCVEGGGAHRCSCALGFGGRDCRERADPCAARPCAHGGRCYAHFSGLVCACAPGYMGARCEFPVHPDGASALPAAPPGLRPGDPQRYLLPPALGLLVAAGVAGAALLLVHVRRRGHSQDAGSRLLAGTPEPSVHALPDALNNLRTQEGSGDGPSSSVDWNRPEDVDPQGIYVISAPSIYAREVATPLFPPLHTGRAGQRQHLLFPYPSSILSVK
As to the kind of experiment: flow cytometry on SHP-77 cells, Geomeans RL1-H; p-SCN-Bn-DOTA conjugate against the unconjugated VHHFc.

A further experiment addresses T2, mouse DLL3 (mouse, UniProt O88516 25-477, limits assumed).
T2 construct: also called mDLL3; murine DLL3
T2 sequence (looked up): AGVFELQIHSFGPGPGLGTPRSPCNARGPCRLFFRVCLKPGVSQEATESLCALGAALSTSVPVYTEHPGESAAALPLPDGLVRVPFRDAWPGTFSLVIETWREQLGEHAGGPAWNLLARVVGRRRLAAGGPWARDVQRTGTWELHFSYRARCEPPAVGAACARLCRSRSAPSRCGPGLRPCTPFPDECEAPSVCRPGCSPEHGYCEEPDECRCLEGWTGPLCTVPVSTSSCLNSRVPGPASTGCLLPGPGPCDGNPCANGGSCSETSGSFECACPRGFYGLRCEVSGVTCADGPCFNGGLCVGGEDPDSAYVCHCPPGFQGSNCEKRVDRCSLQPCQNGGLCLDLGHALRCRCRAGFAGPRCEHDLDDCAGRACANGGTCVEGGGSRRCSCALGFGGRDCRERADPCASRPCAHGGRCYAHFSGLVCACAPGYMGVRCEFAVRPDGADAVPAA
As to the kind of experiment: ELISA. On the technique in general: ELISA stands for enzyme-linked immunosorbent assay.

Experiment [2] concerns the target T1, DLL3 on cells (SHP-77, NCI-H82, …). As to the kind of experiment: flow cytometry on SHP-77 cells, Geomeans RL1-H. In general terms: Flow cytometry measures light scatter and fluorescence of single cells or particles in a stream.
The next experiment addresses T3, human DLL3 on cells (human, UniProt Q9NYJ7 27-618).
T3 sequence (looked up): T1 sequence (looked up)
As to the kind of experiment: cell-based or functional assay.

Experiment [3] concerns the target T1, DLL3 on cells (SHP-77, NCI-H82, …). As to the kind of experiment: flow cytometry on SHP-77 cells, Geomeans RL1-H. The source holds these as a separate data set.
In another experiment the target is T4, human DLL3 (human, UniProt Q9NYJ7 27-492, limits assumed).
T4 construct: also called hDLL3; Delta-like protein 3
T4 sequence (looked up): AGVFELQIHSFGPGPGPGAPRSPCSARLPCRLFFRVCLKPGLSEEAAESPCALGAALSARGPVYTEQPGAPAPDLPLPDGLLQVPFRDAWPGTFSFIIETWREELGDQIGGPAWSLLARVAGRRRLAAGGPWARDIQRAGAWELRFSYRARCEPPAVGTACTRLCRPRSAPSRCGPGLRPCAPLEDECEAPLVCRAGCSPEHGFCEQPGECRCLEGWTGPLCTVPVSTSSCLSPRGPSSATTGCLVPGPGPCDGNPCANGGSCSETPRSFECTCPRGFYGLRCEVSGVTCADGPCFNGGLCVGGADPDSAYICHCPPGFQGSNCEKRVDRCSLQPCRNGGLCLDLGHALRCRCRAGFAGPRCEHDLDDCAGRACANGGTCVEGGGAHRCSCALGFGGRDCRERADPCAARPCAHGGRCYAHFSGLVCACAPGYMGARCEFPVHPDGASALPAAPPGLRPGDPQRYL
As to the kind of experiment: ELISA.

Usually EC50 (read off the curve) stands for the midpoint of the concentration-response curve. High values mean lower potency in that assay, low ones higher potency in that assay.

B1: 126_zu1 Conjugate (Fc fusion)
chain: QVQLVESGGGLVQPGGSLRLSCAASGITFSMYSMSWFRQAPGQGLEAVAATTTFGSTNYADSVKGRFTISRDNSKNTLYLQMNSLRAEDTAVYYCAARFTSEEYWGQGTLVTVSSEPKSSDKTHTCPPCPAPEAEGAPSVFLFPPKPKDTLMISRTPEVTCVVVDVSHEDPEVKFNWYVDGVEVHNAKTKPREEQYNSTYRVVSVLTVLHQDWLNGKEYKCKVSNKALPSSIEKTISKAKGQPREPQVYTLPPSREEMTKNQVSLTCLVKGFYPSDIAVEWESNGQPENNYKTTPPVLDSDGSFFLYSKLTVDKSRWQQGNVFSCSVMHEALHNQYTQKSLSLSPG
modifications: conjugated to p-SCN-Bn-DOTA, chelator-antibody ratio of 3-5 (lysine-based conjugation)
As for B1, in experiment [1], the binding result is reported as “binds”.

B2: 126_zu2 Conjugate (Fc fusion)
chain: B1 chain with A47L
modifications: conjugated to p-SCN-Bn-DOTA, chelator-antibody ratio of 3-5 (lysine-based conjugation)
On to B2, for which the “EC50 (read off the curve)” value in experiment [1] was ~0.1 nM.

B3: 107_zu2 Conjugate (Fc fusion)
chain: QVQLVESGGGLVQPGGSLRLSCAASDRTFSSYAVGWFRQAPGQGLEFVAAISWNGGRTLYTDSVTGRFTISRDNSKNTLYLQMNSLRAEDTAVYYCAARPAAPTRRLEYDYWGQGTLVTVSSEPKSSDKTHTCPPCPAPEAEGAPSVFLFPPKPKDTLMISRTPEVTCVVVDVSHEDPEVKFNWYVDGVEVHNAKTKPREEQYNSTYRVVSVLTVLHQDWLNGKEYKCKVSNKALPSSIEKTISKAKGQPREPQVYTLPPSREEMTKNQVSLTCLVKGFYPSDIAVEWESNGQPENNYKTTPPVLDSDGSFFLYSKLTVDKSRWQQGNVFSCSVMHEALHNQYTQKSLSLSPG
modifications: conjugated to p-SCN-Bn-DOTA, chelator-antibody ratio of 3-5 (lysine-based conjugation)
Turning to B3, in experiment [1], the “EC50 (read off the curve)” value is ~0.1 nM.

B4: 186_zu1 (Fc fusion)
chain: QVQLVESGGGLVQPGGSLRLSCAASGFDFSTYTVNWFRQAPGQGLEAVARISSTGTTTNYANSAKGRFTISRDNSKNTLYLQMNSLRAEDTAVYYCAAERFDSNYWGQGTLVTVSSEPKSSDKTHTCPPCPAPEAEGAPSVFLFPPKPKDTLMISRTPEVTCVVVDVSHEDPEVKFNWYVDGVEVHNAKTKPREEQYNSTYRVVSVLTVLHQDWLNGKEYKCKVSNKALPSSIEKTISKAKGQPREPQVYTLPPSREEMTKNQVSLTCLVKGFYPSDIAVEWESNGQPENNYKTTPPVLDSDGSFFLYSKLTVDKSRWQQGNVFSCSVMHEALHNQYTQKSLSLSPG
notes: Humanized VHH-Fc
As to B4, the binding result with mouse DLL3 is on record as “no binding”. For the same molecule, the “EC50 (read off the curve)” value in experiment [2] was ~0.3 nM.

B5: 186_zu2 conjugated to p-SCN-Bn-DOTA (Fc fusion)
chain: B4 chain with A47K
modifications: conjugated to p-SCN-Bn-DOTA, chelator-antibody ratio of 3-5; lysine in FW2 (printed position 52)
notes: Humanized VHHFc conjugate
For B5, the binding result in experiment [1] is reported as “binds”.

B6: 186_zu1 conjugated to p-SCN-Bn-DOTA (Fc fusion)
chain: B4 chain
modifications: conjugated to p-SCN-Bn-DOTA, chelator-antibody ratio of 3-5
notes: Humanized VHHFc conjugate
Turning to B6, the “EC50 (read off the curve)” value in experiment [1] is ~0.3 nM.

B7: 186_zu2 (Fc fusion)
chain: B4 chain with A47K
notes: Humanized VHH-Fc
Regarding B7, in the experiment with mouse DLL3, the binding result is reported as “no binding”. In addition, the “EC50 (read off the curve)” value in experiment [2] was ~0.1 nM.

B8: Clone 24 VHH-Fc with H435Q Fc (Fc fusion)
chain: QVQYVESGGGLVQPGGSLRLSCAASGFTFSSYRINWYRQPPGKGRELVGSITDTGSTNYADSVKGRFTISRDNAKNTVYLQMSSLKPEDTAVYYCRAPTIAAYWGQGTQVTVSSAPELLGGPSVFLFPPKPKDTLMISRTPEVTCVVVDVSHEDPEVKFNWYVDGVEVHNAKTKPREEQYNSTYRVVSVLTVLHQDWLNGKEYKCKVSNKALPAPIEKTISKAKGQPREPQVYTLPPSREEMTKNQVSLTCLVKGFYPSDIAVEWESNGQPENNYKTTPPVLDSDGSFFLYSKLTVDKSRWQQGNVFSCSVMHEALHNQYTQKSLSLSPG
Take B8: the “H435Q-Fc SHP-77 Internalization FOI” value with human DLL3 on cells is 1.19 FOI.

B9: 186 (Fc fusion)
chain: QVQVVESGGGLVQPGGSLTLSCAASGFDFSTYTVNWYRQAPGKEREKVARISSTGTTTNYANSAKGRFTLSRDNAKNRVYLQMNNLKPEDTAVYFCNFERFDSNYWGQGTQVTVSSEPKSSDKTHTCPPCPAPEAEGAPSVFLFPPKPKDTLMISRTPEVTCVVVDVSHEDPEVKFNWYVDGVEVHNAKTKPREEQYNSTYRVVSVLTVLHQDWLNGKEYKCKVSNKALPSSIEKTISKAKGQPREPQVYTLPPSREEMTKNQVSLTCLVKGFYPSDIAVEWESNGQPENNYKTTPPVLDSDGSFFLYSKLTVDKSRWQQGNVFSCSVMHEALHNQYTQKSLSLSPG
notes: Parental camelid VHH-Fc
As for B9, the “EC50 (read off the curve)” value in experiment [2] is ~0.1 nM.

B10: 126 (Fc fusion)
chain: QVQLVESGGGMVQPGGSLRLSCAASGITFSMYSMSWYRQPPGKQRELVAATTTFGSTNYADSVKGRFTISRDNAKNTVYLQMNSLKPEDTAVYLCNARFTSEEYWGQGTQVTVSSEPKSSDKTHTCPPCPAPEAEGAPSVFLFPPKPKDTLMISRTPEVTCVVVDVSHEDPEVKFNWYVDGVEVHNAKTKPREEQYNSTYRVVSVLTVLHQDWLNGKEYKCKVSNKALPSSIEKTISKAKGQPREPQVYTLPPSREEMTKNQVSLTCLVKGFYPSDIAVEWESNGQPENNYKTTPPVLDSDGSFFLYSKLTVDKSRWQQGNVFSCSVMHEALHNQYTQKSLSLSPG
notes: Parental camelid VHH-Fc
For the molecule B10, the “EC50 (read off the curve)” value in experiment [2] and in experiment [3] was ~0.1 nM each time.

B11: 126 Conjugate (Fc fusion)
chain: B10 chain
modifications: conjugated to p-SCN-Bn-DOTA, chelator-antibody ratio of 3-5 (lysine-based conjugation)
B11: the “EC50 (read off the curve)” value in experiment [1] is ~0.2 nM.

B12: 126_zu1 (Fc fusion)
chain: B1 chain
notes: Humanized VHH-Fc
For the molecule B12, the binding result is “no binding” in the experiment with mouse DLL3, “binds” in the experiment with human DLL3 and “binds” in experiment [3].
